From the RNAGym collection of RNA variant scans (doi:10.1101/gr.219683.116)

B1: mRNA-splicing (parent)
chain: AGUUGCUGCUGGGAGCUCCAGCACAGUGAAAUGGACAGAAGGGCAGAGCAA

Variants of: B1
Experiment: exon inclusion enrichment index; higher = more inclusion; WT1 exon 5 minigene, HEK293

Variant	exon inclusion enrichment index
AGUUACCACCGGGAGCUCCAGCACAGUGAAAUGGACAGAAGGUCAGAGCAA [G5A U7C G8A U10C G43U]	1.89
AGUUACCACCGGGAGCUCCAGCACAGUGAAAUGGACAGAAGGACAGAGCAA [G5A U7C G8A U10C G43A]	4.17
AGUUACCACCGGGAGCUCCAGCACAGUGAAAUGGACAGAAGGCCAGAGCAA [G5A U7C G8A U10C G43C]	2.52
AGUUACCACCGGGAGCUCCAGCACAGUGAAAUGGACAGAAGGGCAAAGCAA [G5A U7C G8A U10C G46A]	2.32
AGUUACCACCGGGAGCUCCAGCACAGUGAAAUGGACAGAAGGGCAUAGCAA [G5A U7C G8A U10C G46U]	1.6
AGUUACCACCGGGAGCUCCAGCACAGUGAAAUGGACAGAAGGGCACAGCAA [G5A U7C G8A U10C G46C]	2.03
AGUUACCACCGGGAGCUCCAGCACAGUGAAAUGGACAGAAGGGCAUGGCAA [G5A U7C G8A U10C G46U A47G]	1.85
AGUUACCACCGGGAGCUCCAGCACAGUGAAAUGGACAGAAGGGCAUCGCAA [G5A U7C G8A U10C G46U A47C]	2.94
AGUUACCACCGGGAGCUCCAGCACAGUGAAAUGGACAGAAGGGCAUUGCAA [G5A U7C G8A U10C G46U A47U]	2.48
AGUUACCACCGGGAGCUCCAGCACAGUGAAAUGGACAGAAUCGCAGAGCAA [G5A U7C G8A U10C G41U G42C]	2.97
AGUUACCACCGGGAGCUCCAGCACAGUGAAAUGGACAGAAUAGCAGAGCAA [G5A U7C G8A U10C G41U G42A]	0.909
AGUUACCACCGGGAGCUCCAGCACAGUGAAAUGGACAGAAUUGCAGAGCAA [G5A U7C G8A U10C G41U G42U]	1.9
AGUUACCACCGGGAGCUCCAGCACAGUGAAAUGCUCAGAAGGGCAGAGCAA [G5A U7C G8A U10C G34C A35U]	0.506
AGUUACCACCGGGAGCUCCAGCACAGUGAAAUGCGCAGAAGGGCAGAGCAA [G5A U7C G8A U10C G34C A35G]	1.69
AGUUACCACCGGGAGCUCCAGCACAGUGAAAUGCCCAGAAGGGCAGAGCAA [G5A U7C G8A U10C G34C A35C]	0.149
AGUUACCACCGGGAGCUCCAGCACAGUCAAAUGGACAGAAGGGCAGAGCAA [G5A U7C G8A U10C G28C]	1.68
AGUUACCACCGGGAGCUCCAGCACAGUUAAAUGGACAGAAGGGCAGAGCAA [G5A U7C G8A U10C G28U]	0.556
AGUUACCACCGGGAGCUCCAGCACAGUAAAAUGGACAGAAGGGCAGAGCAA [G5A U7C G8A U10C G28A]	0.733
AGUUACCACCGGGAGCUCCAGCACAGUCUAAUGGACAGAAGGGCAGAGCAA [G5A U7C G8A U10C G28C A29U]	1.13
AGUUACCACCGGGAGCUCCAGCACAGUCGAAUGGACAGAAGGGCAGAGCAA [G5A U7C G8A U10C G28C A29G]	3.25
AGUUACCACCGGGAGCUCCAGCACAGUCCAAUGGACAGAAGGGCAGAGCAA [G5A U7C G8A U10C G28C A29C]	1.72
AGUUACCACCGGGAGCUCCAGCACAGUGAAAUGGACAGAAGGCAAGAGCAA [G5A U7C G8A U10C G43C C44A]	3.61
AGUUACCACCGGGAGCUCCAGCACAGUGAAAUGGACAGAAGGCUAGAGCAA [G5A U7C G8A U10C G43C C44U]	1.59
AGUUACCACCGGGAGCUCCAGCACAGUGAAAUGGACAGAAGGCGAGAGCAA [G5A U7C G8A U10C G43C C44G]	4.39
AGUUACCACCGGGAGCUCCAGCACAGUGAAAUGGACAGAACUGCAGAGCAA [G5A U7C G8A U10C G41C G42U]	3.05
AGUUACCACCGGGAGCUCCAGCACAGUGAAAUGGACAGAACCGCAGAGCAA [G5A U7C G8A U10C G41C G42C]	3.27

Variant	exon inclusion enrichment index
AGUUACCACCGGGAGCUCCAGCACAGUGAAAUGGACAGAACAGCAGAGCAA [G5A U7C G8A U10C G41C G42A]	2.13
AGUUACCACCGGGAGCUCCAGCACAGUGAAAUGUGCAGAAGGGCAGAGCAA [G5A U7C G8A U10C G34U A35G]	0.753
AGUUACCACCGGGAGCUCCAGCACAGUGAAAUGUCCAGAAGGGCAGAGCAA [G5A U7C G8A U10C G34U A35C]	0.726
AGUUACCACCGGGAGCUCCAGCACAGUGAAAUGUUCAGAAGGGCAGAGCAA [G5A U7C G8A U10C G34U A35U]	0.441
AGUUACCACCGGGAGCUCCAGCACAGUGAAAUGGACAUAAGGGCAGAGCAA [G5A U7C G8A U10C G38U]	0.919
AGUUACCACCGGGAGCUCCAGCACAGUGAAAUGGACACAAGGGCAGAGCAA [G5A U7C G8A U10C G38C]	1.83
AGUUACCACCGGGAGCUCCAGCACAGUGAAAUGGACAAAAGGGCAGAGCAA [G5A U7C G8A U10C G38A]	1.25
AGUUACCACCGGGAGCUCCAGCACAGUGAAAUAUACAGAAGGGCAGAGCAA [G5A U7C G8A U10C G33A G34U]	0.361
AGUUACCACCGGGAGCUCCAGCACAGUGAAAUAAACAGAAGGGCAGAGCAA [G5A U7C G8A U10C G33A G34A]	0.398
AGUUACCACCGGGAGCUCCAGCACAGUGAAAUACACAGAAGGGCAGAGCAA [G5A U7C G8A U10C G33A G34C]	0.421
AGUUACCACCGGGAGCUCCAGCACAGUGAAAUGAUCAGAAGGGCAGAGCAA [G5A U7C G8A U10C G34A A35U]	0.813
AGUUACCACCGGGAGCUCCAGCACAGUGAAAUGAGCAGAAGGGCAGAGCAA [G5A U7C G8A U10C G34A A35G]	1.09
AGUUACCACCGGGAGCUCCAGCACAGUGAAAUGACCAGAAGGGCAGAGCAA [G5A U7C G8A U10C G34A A35C]	1.83
AGUUACCACCGGGAGCAACAGCACAGUGAAAUGGACAGAAGGGCAGAGCAA [G5A U7C G8A U10C U17A C18A]	1.29
AGUUACCACCGGGAGCUCCAGCACAGUGAAAUGGACAGAAACGCAGAGCAA [G5A U7C G8A U10C G41A G42C]	2.53
AGUUACCACCGGGAGCUCCAGCACAGUGAAAUGGACAGAAAAGCAGAGCAA [G5A U7C G8A U10C G41A G42A]	1.99
AGUUACCACCGGGAGCUCCAGCACAGUGAAAUGGACAGAAAUGCAGAGCAA [G5A U7C G8A U10C G41A G42U]	1.8
AGUUACCACCGGGAGCUCCAGCACAGUGAAAUGGACAGAAGCGCAGAGCAA [G5A U7C G8A U10C G42C]	3.71
AGUUACCACCGGGAGCUCCAGCACAGUGAAAUGGACAGAAGAGCAGAGCAA [G5A U7C G8A U10C G42A]	3.71
AGUUACCACCGGGAGCUCCAGCACAGUGAAAUGGACAGAAGUGCAGAGCAA [G5A U7C G8A U10C G42U]	2.55
AGUUACCACCGGGAGCUCCAGCACAGUGAAAUUGACAGAAGGGCAGAGCAA [G5A U7C G8A U10C G33U]	0.998
AGUUACCACCGGGAGCUCCAGCACAGUGAAAUAGACAGAAGGGCAGAGCAA [G5A U7C G8A U10C G33A]	0.235
AGUUACCACCGGGAGCUCCAGCACAGUGAAAUCGACAGAAGGGCAGAGCAA [G5A U7C G8A U10C G33C]	2.65
AGUUACCACCGGGAGCUCCAGCACAGUGAAAUGGACAAUAGGGCAGAGCAA [G5A U7C G8A U10C G38A A39U]	0.204
AGUUACCACCGGGAGCUCCAGCACAGUGAAAUGGACAACAGGGCAGAGCAA [G5A U7C G8A U10C G38A A39C]	1.95
